Measured values as given in patent publication US20210324099A1 (Chugai, published 2021).

T1: hFcgRIIaH (human, UniProt P12318 34-217)
T1 construct: extracellular domain; also called human FcγRIIa type H (H131)
T1 sequence (looked up): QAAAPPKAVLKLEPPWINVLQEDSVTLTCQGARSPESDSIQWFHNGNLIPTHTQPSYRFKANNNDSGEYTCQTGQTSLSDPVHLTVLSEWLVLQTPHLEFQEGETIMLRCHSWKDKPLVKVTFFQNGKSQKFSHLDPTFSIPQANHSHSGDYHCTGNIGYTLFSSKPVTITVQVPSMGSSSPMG

T2: hFcgRIIb (human, UniProt P31994 43-217)
T2 construct: extracellular domain; also called human FcγRIIb
T2 sequence (looked up): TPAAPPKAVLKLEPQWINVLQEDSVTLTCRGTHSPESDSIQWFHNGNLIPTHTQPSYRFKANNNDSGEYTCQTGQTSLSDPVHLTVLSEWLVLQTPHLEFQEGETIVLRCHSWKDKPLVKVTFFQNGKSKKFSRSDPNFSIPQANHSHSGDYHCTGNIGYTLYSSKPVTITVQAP

T3: hFcgRIIaR (human, UniProt P12318 34-217)
T3 construct: extracellular domain; also called human FcγRIIa type R (R131)
T3 sequence (looked up): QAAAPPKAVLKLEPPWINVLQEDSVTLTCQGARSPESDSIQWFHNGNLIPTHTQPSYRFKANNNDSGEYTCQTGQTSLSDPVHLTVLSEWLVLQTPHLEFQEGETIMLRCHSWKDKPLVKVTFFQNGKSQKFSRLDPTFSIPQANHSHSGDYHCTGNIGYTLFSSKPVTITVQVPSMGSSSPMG


How the values were obtained:
human FcRn = human FcRn (human, UniProt P55899 24-290; P61769 21-119, limits assumed); assay: SPR 25C pH 6.0, steady state;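 also: antibody captured on chip via anti-human Fab-lambda ligand, human FcRn injected as analyte in 50 mM phosphate buffer with 150 mM NaCl and P20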
hFcgRIIIaV [1] = molecular target: T4, hFcgRIIIaV (human, UniProt P08637 17-208); assay: SPR 25C
T4 construct: extracellular domain; also called human FcγRIIIa allotype V158

hFcgRIIIaF [2] = molecular target: T5, hFcgRIIIaF (human, UniProt P08637 17-208); assay: SPR 25C
T5 construct: extracellular domain; also called human FcγRIIIa allotype F158

hFcgRIIaH [3] = molecular target: T1, hFcgRIIaH; assay: SPR 25C
hFcgRIIb [4] = molecular target: T2, hFcgRIIb; assay: SPR 25C
hFcgRIa [5] = molecular target: T6, hFcgRIa (human, UniProt P12314 16-292); assay: SPR 25C
T6 construct: extracellular domain; also called human FcγRIa; FcγRI

hFcgRIIaR [6] = molecular target: T3, hFcgRIIaR; assay: SPR 25C
hFcgRIIIaV [7] = molecular target: T4, hFcgRIIIaV; assay: SPR 25C; relative to A375-G1T3/B167-Lamlib;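 also: SPR with antibody captured on an anti-human Fab-lambda chip, human FcγR analyte at 8 nM for FcγRIa or 1000 nM for the others, pH 7.4, FcγR RU per captured antibody unit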
Method: (§1) Biacore T200 (GE Healthcare) was used to evaluate the binding activity to the respective human Fcγ receptor (hereafter referred to as FcγR). Measurement was performed at 25° C. using 50 mM phosphate, 150 mM NaCl, 0.05 w/v %-P20, pH 7.4 as buffer. About 1000 RU of antibody was captured using a sensor chip immobilized with CaptureSelect™ Human Fab-lambda Kinetics Biotin Conjugate (Thermo Fisher Scientific) as a molecule for ligand capturing. Human FcγR was diluted to 8 nM for FcγRIa and 1000 nM for other FcγR in the measurement buffer, and it was interacted to the captured antibody. The binding activity of each antibody to FcγR was assessed by calculating the binding amount of FcγR (RU) per unit amount of antibody using Biacore T200 Evaluation Software 2.0.

hFcgRIIIaF [8] = molecular target: T5, hFcgRIIIaF; assay: SPR 25C; relative to A375-G1T3/B167-Lamlib;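 also: SPR with antibody captured on an anti-human Fab-lambda chip, human FcγR analyte at 8 nM for FcγRIa or 1000 nM for the others, pH 7.4, FcγR RU per captured antibody unit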
Method: as §1

hFcgRIIaH [9] = molecular target: T1, hFcgRIIaH; assay: SPR 25C; relative to A375-G1T3/B167-Lamlib;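 also: SPR with antibody captured on an anti-human Fab-lambda chip, human FcγR analyte at 8 nM for FcγRIa or 1000 nM for the others, pH 7.4, FcγR RU per captured antibody unit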
Method: as §1

hFcgRIIb [10] = molecular target: T2, hFcgRIIb; assay: SPR 25C; relative to A375-G1T3/B167-Lamlib;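 also: SPR with antibody captured on an anti-human Fab-lambda chip, human FcγR analyte at 8 nM for FcγRIa or 1000 nM for the others, pH 7.4, FcγR RU per captured antibody unit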
Method: as §1

hFcgRIa [11] = molecular target: T6, hFcgRIa; assay: SPR 25C; relative to A375-G1T3/B167-Lamlib
Method: as §1

hFcgRIIaR [12] = molecular target: T3, hFcgRIIaR; assay: SPR 25C; relative to A375-G1T3/B167-Lamlib
Method: as §1
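For binding per 1RU of antibody in this document: biacore SPR with antibody captured on an anti-human Fab lambda chip, human FcγR injected at 1000 nM (FcγRIa at 8 nM) in pH 7.4 phosphate buffer.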

T6 sequence (P12314 16-292): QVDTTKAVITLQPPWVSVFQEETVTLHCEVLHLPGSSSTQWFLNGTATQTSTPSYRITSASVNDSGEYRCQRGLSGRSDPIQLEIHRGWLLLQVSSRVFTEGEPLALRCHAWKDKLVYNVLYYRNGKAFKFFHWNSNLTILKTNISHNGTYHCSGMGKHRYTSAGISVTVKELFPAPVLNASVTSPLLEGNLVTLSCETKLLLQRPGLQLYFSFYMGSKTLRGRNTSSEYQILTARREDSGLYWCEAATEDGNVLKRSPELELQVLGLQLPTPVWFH
T4 sequence (P08637 17-208 F176V): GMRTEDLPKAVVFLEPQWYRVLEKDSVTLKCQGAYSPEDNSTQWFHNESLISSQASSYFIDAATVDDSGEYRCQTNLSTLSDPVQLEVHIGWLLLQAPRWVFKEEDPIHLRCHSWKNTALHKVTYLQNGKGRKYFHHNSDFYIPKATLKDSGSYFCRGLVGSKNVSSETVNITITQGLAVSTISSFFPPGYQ
T5 sequence (P08637 17-208): as the sequence (P08637 17-208 F176V) above, with V160F counted along it

Binder	Kd (human FcRn) [nM]	binding per 1RU of antibody (hFcgRIIIaV [1]) [RU]	binding per 1RU of antibody (hFcgRIIIaF [2]) [RU]	binding per 1RU of antibody (hFcgRIIaH [3]) [RU]	binding per 1RU of antibody (hFcgRIIb [4]) [RU]	binding per 1RU of antibody (hFcgRIa [5]) [RU]	binding per 1RU of antibody (hFcgRIIaR [6]) [RU]	relative binding amount (hFcgRIIIaV [7])	relative binding amount (hFcgRIIIaF [8])	relative binding amount (hFcgRIIaH [9])	relative binding amount (hFcgRIIb [10])	relative binding amount (hFcgRIa [11])	relative binding amount (hFcgRIIaR [12])
A375-SCF027/B167-Lamlib (antibody, human IgG1, lambda, also called A375-SCF027/B167-LamLab) heavy: EVQLVESGGGLVKPGGSLRLSCAASGFTFSTFTMNWVRQAPGKGLEWVSSISSKSTYIEYADSFKVRFTISRDNAKNSLYLQMNSLRAEDTAVYYCARYGAKNFLNWVFDYWGQGTLVTVSSASTKGPSVFPLAPSSKSTSGGTAALGCLVKDYFPEPVTVSWNSGALTSGVHTFPAVLQSSGLYSLSSVVTVPSSSLGTQTYICNVNHKPSNTKVDKKVEPKSCDKTHTCPPCPAPEYLGGDSVFLFPPKPKDVLMISRTPEVTCVVIDVSHEDPEVKFNWYVDGVEVHNAKTKPREEQYNSTYRVVSVLPVLHQDWLNGKEYKCKVSNKALPKPIEKTISKAKGQRREPQVYTLPPSREEMTKNQVSLTCLVKGFYPSDIAVEWESNGQPENNYKTTPPVLDSDGSFFLYSKLTVKKSRWQQGNVFSCSVMHEALHNHYTQKSLSLSP light: QSALTQPPSASGSPGQTVTISCTGTRYDVGYYEYVSWYQQHPGKAPKLMIYETSKRLSGVPDRFSGSKSGNTASLTVSGLQAEDEADYYCSSYRYEHQVSFGGGTKLTVLGQPKAAPSVTLFPPSSEELQANKATLVCLISDFYPGAVTVAWKADSSPVKAGVETTTPSKQSNNKYAASSYLSLTPEQWKSHRSYSCQVTHEGSTVEKTVAPTECS	1330	-0.0006	-0.0005	0.0031	0.0766	0.0044	0.0058	-0.01	-0.02	0.06	6.99	0.05	0.12
A375-SCF028/B167-Lamlib (antibody, human IgG1, lambda) heavy: EVQLVESGGGLVKPGGSLRLSCAASGFTFSTFTMNWVRQAPGKGLEWVSSISSKSTYIEYADSFKVRFTISRDNAKNSLYLQMNSLRAEDTAVYYCARYGAKNFLNWVFDYWGQGTLVTVSSASTKGPSVFPLAPSSKSTSGGTAALGCLVKDYFPEPVTVSWNSGALTSGVHTFPAVLQSSGLYSLSSVVTVPSSSLGTQTYICNVNHKPSNTKVDKKVEPKSCDKTHTCPPCPAPEYLGDDSVFLFPPKPKDVLMISRTPEVTCVVVDVSHEDPEVKFNWYVDGVEVHNAKTKPREEQYNSTYRVVSVLPVLHQDWLNGKEYKCKVSNKALPKPIEKTISKAKGQRREPQVYTLPPSREEMTKNQVSLTCLVKGFYPSDIAVEWESNGQPENNYKTTPPVLDSDGSFFLYSKLTVKKSRWQQGNVFSCSVMHEALHNHYTQKSLSLSP light: QSALTQPPSASGSPGQTVTISCTGTRYDVGYYEYVSWYQQHPGKAPKLMIYETSKRLSGVPDRFSGSKSGNTASLTVSGLQAEDEADYYCSSYRYEHQVSFGGGTKLTVLGQPKAAPSVTLFPPSSEELQANKATLVCLISDFYPGAVTVAWKADSSPVKAGVETTTPSKQSNNKYAASSYLSLTPEQWKSHRSYSCQVTHEGSTVEKTVAPTECS	1270	-0.001	-0.0009	0.0101	0.0995	0.0027	0.0299	-0.01	-0.04	0.18	9.08	0.03	0.64

Binders with a lower Kd (human FcRn), results first:

Kd (human FcRn) [nM]	binding per 1RU of antibody (hFcgRIIIaV [1]) [RU]	binding per 1RU of antibody (hFcgRIIIaF [2]) [RU]	binding per 1RU of antibody (hFcgRIIaH [3]) [RU]	binding per 1RU of antibody (hFcgRIIb [4]) [RU]	binding per 1RU of antibody (hFcgRIa [5]) [RU]	binding per 1RU of antibody (hFcgRIIaR [6]) [RU]	relative binding amount (hFcgRIIIaV [7])	relative binding amount (hFcgRIIIaF [8])	relative binding amount (hFcgRIIaH [9])	relative binding amount (hFcgRIIb [10])	relative binding amount (hFcgRIa [11])	relative binding amount (hFcgRIIaR [12])	Binder
1130	0.0016	0.0009	0.0514	0.0511	0.0021	0.0518	0.02	0.04	0.91	4.67	0.03	1.12	A375-SCF025a/B167-Lamlib (antibody, human IgG1, lambda) heavy: EVQLVESGGGLVKPGGSLRLSCAASGFTFSTFTMNWVRQAPGKGLEWVSSISSKSTYIEYADSFKVRFTISRDNAKNSLYLQMNSLRAEDTAVYYCARYGAKNFLNWVFDYWGQGTLVTVSSASTKGPSVFPLAPSSKSTSGGTAALGCLVKDYFPEPVTVSWNSGALTSGVHTFPAVLQSSGLYSLSSVVTVPSSSLGTQTYICNVNHKPSNTKVDKRVEPKSCDKTHTCPPCPAPELWNGPSVFLFPPKPKDTLMISRTPEVTCVVVDVSDEDPEVKFNWYVDGVEVHNAKTKPREELYNSTYRVVSVLTVLHQDWLNGKEYKCKVSNTALPKPIEKTISKAKGQRREPQVYTLPPSREEMTKNQVSLTCLVKGFYPSDIAVEWESNGQPENNYKTTPPVLDSDGSFFLYSKLTVKKSRWQQGNVFSCSVMHEALHNHYTQKSLSLSP light: QSALTQPPSASGSPGQTVTISCTGTRYDVGYYEYVSWYQQHPGKAPKLMIYETSKRLSGVPDRFSGSKSGNTASLTVSGLQAEDEADYYCSSYRYEHQVSFGGGTKLTVLGQPKAAPSVTLFPPSSEELQANKATLVCLISDFYPGAVTVAWKADSSPVKAGVETTTPSKQSNNKYAASSYLSLTPEQWKSHRSYSCQVTHEGSTVEKTVAPTECS
1100	0.0014	0.0012	0.0514	0.0512	0.0022	0.0519	0.02	0.06	0.91	4.67	0.03	1.12	A375-SCF025/B167-Lamlib (antibody, human IgG1, lambda) heavy: EVQLVESGGGLVKPGGSLRLSCAASGFTFSTFTMNWVRQAPGKGLEWVSSISSKSTYIEYADSFKVRFTISRDNAKNSLYLQMNSLRAEDTAVYYCARYGAKNFLNWVFDYWGQGTLVTVSSASTKGPSVFPLAPSSKSTSGGTAALGCLVKDYFPEPVTVSWNSGALTSGVHTFPAVLQSSGLYSLSSVVTVPSSSLGTQTYICNVNHKPSNTKVDKKVEPKSCDKTHTCPPCPAPELWNGPSVFLFPPKPKDTLMISRTPEVTCVVVDVSDEDPEVKFNWYVDGVEVHNAKTKPREELYNSTYRVVSVLTVLHQDWLNGKEYKCKVSNTALPKPIEKTISKAKGQRREPQVYTLPPSREEMTKNQVSLTCLVKGFYPSDIAVEWESNGQPENNYKTTPPVLDSDGSFFLYSKLTVKKSRWQQGNVFSCSVMHEALHNHYTQKSLSLSP light: QSALTQPPSASGSPGQTVTISCTGTRYDVGYYEYVSWYQQHPGKAPKLMIYETSKRLSGVPDRFSGSKSGNTASLTVSGLQAEDEADYYCSSYRYEHQVSFGGGTKLTVLGQPKAAPSVTLFPPSSEELQANKATLVCLISDFYPGAVTVAWKADSSPVKAGVETTTPSKQSNNKYAASSYLSLTPEQWKSHRSYSCQVTHEGSTVEKTVAPTECS
863	0.002	0.0017	0.0533	0.0532	0.002	0.0532	0.03	0.08	0.94	4.85	0.02	1.15	A375-SCF030/B167-Lamlib (antibody, human IgG1, lambda) heavy: EVQLVESGGGLVKPGGSLRLSCAASGFTFSTFTMNWVRQAPGKGLEWVSSISSKSTYIEYADSFKVRFTISRDNAKNSLYLQMNSLRAEDTAVYYCARYGAKNFLNWVFDYWGQGTLVTVSSASTKGPSVFPLAPSSKSTSGGTAALGCLVKDYFPEPVTVSWNSGALTSGVHTFPAVLQSSGLYSLSSVVTVPSSSLGTQTYICNVNHKPSNTKVDKKVEPKSCDKTHTCPPCPAPELWNGPSVFLFPPKPKDTLMISRTPEVTCVVVDVSDEDPEVKFNWYVDGVEVHNAKTKPREELYNSTYRVVSVLTVLHRDWLNGKEYKCKVSNTALPKPIEKTISKAKGQRREPQVYTLPPSREEMTKNQVSLTCLVKGFYPSDIAVEWESNGQPENNYKTTPPVLDSDGSFFLYSKLTVDKSRWQQGNVFSCSVMHEALHNHYTQKSLSLSP light: QSALTQPPSASGSPGQTVTISCTGTRYDVGYYEYVSWYQQHPGKAPKLMIYETSKRLSGVPDRFSGSKSGNTASLTVSGLQAEDEADYYCSSYRYEHQVSFGGGTKLTVLGQPKAAPSVTLFPPSSEELQANKATLVCLISDFYPGAVTVAWKADSSPVKAGVETTTPSKQSNNKYAASSYLSLTPEQWKSHRSYSCQVTHEGSTVEKTVAPTECS
